Here are results for four molecules from patent US20090252748A1 (Biogen, published 2009).

Numbering of substitutions follows the chain as printed.

By EC50 (read off the curve) is commonly meant the concentration at which the effect is half-maximal. As a reminder, the Kd is the equilibrium constant for the complex coming apart. Read a low Kd as higher affinity.

The target in test [1] is T1, Sp35 fragment 417-498 human Fc (human, UniProt Q96FE5 423-504).
T1 construct: not shown: Fc, printed 'human Fc'
T1 sequence: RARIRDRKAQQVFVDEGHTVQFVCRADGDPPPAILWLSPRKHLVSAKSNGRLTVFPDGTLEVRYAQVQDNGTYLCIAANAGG
Nature of the test: fragment binding.

In test [2] the target is T2, Ig region of Sp35 (Homo sapiens (Human), UniProt Q96FE5 425-499).
T2 sequence: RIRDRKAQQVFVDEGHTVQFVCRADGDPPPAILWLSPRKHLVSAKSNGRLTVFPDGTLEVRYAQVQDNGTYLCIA
Nature of the test: ELISA. On the procedure:
Ovalbumin and BSA were used as controls. […] The affinity of these latter antibodies for mouse and rat Sp35 was restored to the level seen using human Sp35 when amino acid 419 of the mouse or rat Sp35 is changed from histidine (H) to arginine (R). Arginine is the amino acid at position 419 in human Sp35. […] AP substrate was then developed by 10 mg/ml 4 NPP in 0.1 M Glycine, 1 mM MgCl₂, 1 mM ZnCl₂, pH 10.5, and read at O.D. 405.
In similar experiments, monoclonal antibodies 3B5.2 and 7P1D5.1G9, as well as the Fab fragment of the 7P1D5.1G9 antibody were tested in ELISA assays for their ability to bind human Sp35, the entire LRR region of Sp35, the Ig region of Sp35 and murine Sp35. […] The 3B5.2 and 7P1D5. 1G9 monoclonal antibodies also bound the LRR region of Sp35.
For orientation: In an ELISA, binding on a coated surface is turned into a signal by an enzyme label.

Test [3] addresses T3, human Sp35 protein expressed on transfected cells (human, UniProt Q96FE5 40-620).
T3 construct: also called huSp35; hLINGO-1
T3 sequence: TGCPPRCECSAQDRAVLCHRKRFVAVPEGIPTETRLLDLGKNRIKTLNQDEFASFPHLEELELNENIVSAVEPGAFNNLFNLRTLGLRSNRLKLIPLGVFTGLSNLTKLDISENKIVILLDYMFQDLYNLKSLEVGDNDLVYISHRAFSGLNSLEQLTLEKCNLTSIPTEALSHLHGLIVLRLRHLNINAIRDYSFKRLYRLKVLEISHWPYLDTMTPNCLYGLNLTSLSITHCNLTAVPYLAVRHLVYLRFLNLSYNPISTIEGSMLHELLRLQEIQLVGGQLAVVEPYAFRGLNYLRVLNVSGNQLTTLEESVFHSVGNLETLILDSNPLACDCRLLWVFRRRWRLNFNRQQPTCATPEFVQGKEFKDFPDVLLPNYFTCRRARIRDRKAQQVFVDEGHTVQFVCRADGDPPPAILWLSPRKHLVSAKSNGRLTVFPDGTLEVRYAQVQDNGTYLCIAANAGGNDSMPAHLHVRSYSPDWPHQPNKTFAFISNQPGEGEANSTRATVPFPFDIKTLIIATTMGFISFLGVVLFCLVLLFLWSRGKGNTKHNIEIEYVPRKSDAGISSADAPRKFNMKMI
The test can be described thus: FACS direct binding, CHO cells stably transfected with human Sp35 (LINGO-1), mean fluorescence (MCF) against antibody concentration [panel Human]. On the procedure: (§1) In similar experiments, CHO cells stably transfected with Sp35 were used in FACS analysis to further characterize the binding properties of 3B5.2 and 7P1D5.1G9. […] Specifically, the 3B5.2 and 7P1D5.1G9 antibodies were tested for their ability to bind CHO cells transfected with, and expressing, human or murine Sp35. […] Additionally, the 3B5.2 antibody bound more cells as measured by the mean fluorescence (MCF) than 7P1D5.1G9.

Test [4] concerns the target T4, mouse Sp35 protein expressed on transfected cells (mouse, UniProt Q9D1T0 36-614).
T4 construct: whole, on cells; also called mSp35; mLINGO-1
T4 sequence (looked up): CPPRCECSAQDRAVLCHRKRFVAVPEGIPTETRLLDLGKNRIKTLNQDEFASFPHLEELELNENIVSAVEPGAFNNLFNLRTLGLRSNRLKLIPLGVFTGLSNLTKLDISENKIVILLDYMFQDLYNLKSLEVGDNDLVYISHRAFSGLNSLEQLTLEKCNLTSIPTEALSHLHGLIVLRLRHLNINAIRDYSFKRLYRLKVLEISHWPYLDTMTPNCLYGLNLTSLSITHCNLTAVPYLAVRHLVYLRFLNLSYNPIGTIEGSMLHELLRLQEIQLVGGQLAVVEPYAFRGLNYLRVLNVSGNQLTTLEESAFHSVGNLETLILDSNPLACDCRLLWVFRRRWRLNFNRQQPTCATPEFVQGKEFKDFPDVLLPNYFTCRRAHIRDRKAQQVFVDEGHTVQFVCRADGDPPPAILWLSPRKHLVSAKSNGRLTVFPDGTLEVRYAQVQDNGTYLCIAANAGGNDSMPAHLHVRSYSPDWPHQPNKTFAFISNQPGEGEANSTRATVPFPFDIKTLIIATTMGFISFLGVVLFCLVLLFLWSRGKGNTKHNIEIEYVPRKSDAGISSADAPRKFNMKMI
The test can be described thus: FACS direct binding, CHO cells stably transfected with murine Sp35 (LINGO-1), mean fluorescence (MCF) against antibody concentration [panel Murine]. On the procedure: as §1

Test [5] deals with T5, human Sp35 protein (ELISA, Western, KD; form not stated) (human, UniProt Q96FE5 40-538, limits assumed).
T5 construct: also called huSp35; hLINGO-1
T5 sequence: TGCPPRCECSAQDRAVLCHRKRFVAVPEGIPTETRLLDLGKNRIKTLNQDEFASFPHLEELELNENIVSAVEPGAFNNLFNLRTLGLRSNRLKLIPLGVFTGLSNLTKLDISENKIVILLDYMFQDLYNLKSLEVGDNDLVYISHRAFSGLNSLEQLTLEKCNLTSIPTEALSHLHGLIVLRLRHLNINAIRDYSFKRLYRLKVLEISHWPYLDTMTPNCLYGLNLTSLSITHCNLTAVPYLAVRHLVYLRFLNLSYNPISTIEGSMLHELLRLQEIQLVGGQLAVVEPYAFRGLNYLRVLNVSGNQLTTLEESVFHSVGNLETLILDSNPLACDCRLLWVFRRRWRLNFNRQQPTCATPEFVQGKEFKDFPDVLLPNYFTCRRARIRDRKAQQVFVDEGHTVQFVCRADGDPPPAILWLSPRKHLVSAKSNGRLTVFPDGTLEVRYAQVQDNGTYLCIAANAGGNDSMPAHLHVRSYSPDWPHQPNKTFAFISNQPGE
Nature of the test: method not stated.

Test [6] has as its target T6, mouse Sp35 protein (ELISA, Western, KD; form not stated) (mouse, UniProt Q9D1T0 34-532, limits assumed).
T6 construct: also called mSp35; mLINGO1
T6 sequence (looked up): T5 sequence with S261G, V315A, R386H
The test can be described thus: method not stated.

Test [7] concerns the target T5, human Sp35 protein (ELISA, Western, KD; …). The test can be described thus: method not stated; second figure of the same phrase, inconsistent with the 10 nM already written.
Test [8] concerns the target T7, AP-Sp35 (418-498) (Homo sapiens (Human), UniProt Q96FE5 424-504).
T7 sequence: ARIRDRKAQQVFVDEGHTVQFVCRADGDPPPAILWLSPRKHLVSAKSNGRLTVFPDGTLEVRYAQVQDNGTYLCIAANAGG
Nature of the test: fragment binding.

B1: D13 (full-length antibody with the Li13 variable region) (antibody, V domains shown)
VH: EVQLLESGGGLVQPGGSLRLSCAASGFTFSHYEMYWVRQAPGKGLEWVSRIVSSGGFTKYADSVKGRFTISRDNSKNTLYLQMNSLRAEDTAVYYCATEGDNDAFDIWGQGTTVTVSS
VL: DIQMTQSPATLSLSPGERATLSCRASQSVSSYLAWYQQKPGQAPRLLIYDASNRATGIPARFSGSGSGTDFTLTISSLEPEDFAVYYCQQRSNWPMYTFGQGTKLEIK
notes: also called 72-D03 (Dli13) Ab
As for B1, the binding result in test [1] was “no binding”.

B2: 3B5.2 monoclonal antibody (ATCC PTA-8106) (antibody, mouse IgG1, V domains shown)
VH: QVQLQQPGAELVRPGTSVKLSCRASGYTFTSYWMHWVKQRPGQGLEWIGVIDPSDSYTNYNQKFRGKATLTVDTSSSTAYMQLSSLTSEDSAVYYCARPYYGSHWFFDVWGTGTTVTVSS
VL: QIVLTQSPAIMSASPGEKVTMTCSASSRVSYVHWYQQKSGTSPKRWLYDTSNLASGVPARFGGNGSGTSYSLTISSMEAEDAATYYCQQWSTNPPTFGGGTKLEIK
modifications: N-linked glycosylation site in FR3 (appears glycosylated)
notes: murine IgG1/kappa; also called 2.P3B5.2
Take B2: the binding result in test [2] was “no binding”. Further, the “EC50 (read off the curve)” value in test [3] and in test [4] was approximately 0.4 nM throughout.

B3: 1A7 monoclonal antibody (antibody, mouse IgG1, V domains shown)
VH: QVQLVQSGPELKKPGETVKISCKASGYTFTNYGMNWVKQAPGKGLKWMGWINTDTGEPTYTEDFQGRFAFSLETSASTVYLQFNNLKNEDTATYFCAREGVHFDYWGQGTTVTVSS
VL: B2 VL with R28S, V32M, L47I, N52K, G62S, N64S, T92S, P95F, G99S
notes: murine IgG1/kappa; also called P1A7; 1A7 mAb
With B3, the equilibrium dissociation constant (Kd) in test [5] is 10 nM; in test [6], 20000 nM; in test [7], 1 nM.

B4: D06 (full-length antibody with the Li06 variable region) (antibody, V domains shown)
VH: EVQLLESGGGLVQPGGSLRLSCAASGFTFSEYPMDWVRQAPGKGLEWVSSIYSSGGSTVYADSIKGRFTISRDNSKNTLYLQMNSLRAEDTAVYYCAREGDSDAFDIWGQGTMVTVSS
VL: DIQMTQSPSTLSASVGDRVTITCRASQSISSWLAWYQQKPGKAPNLLIYAASSLRTGVPSRFRGSGSGTDFTLTISSLQPEDFATYYCLQDYSYPLTFGQGTKLEIK
notes: also called 34-F02 (Dli06) Ab
With B4, the binding result in test [8] is reported as “no binding”.
